Source: patent US20150344570A1 (published 2015)

T1: FcγRIIa R extracellular domain with C-terminal His tag (human, UniProt P12318 34-217)
T1 construct: extracellular domain; also called FcgRIIa R; 2aR; not shown: His tag at the C terminus
T1 sequence (looked up): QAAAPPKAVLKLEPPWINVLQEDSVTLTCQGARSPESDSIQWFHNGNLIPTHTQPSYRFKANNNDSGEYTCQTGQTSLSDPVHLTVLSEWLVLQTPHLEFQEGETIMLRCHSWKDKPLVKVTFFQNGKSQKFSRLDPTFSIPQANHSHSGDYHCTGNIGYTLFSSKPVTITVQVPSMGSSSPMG

B1: GpH7-B3 variant S324_06M/GpL16-k0 (antibody, human IgG1, kappa)
heavy: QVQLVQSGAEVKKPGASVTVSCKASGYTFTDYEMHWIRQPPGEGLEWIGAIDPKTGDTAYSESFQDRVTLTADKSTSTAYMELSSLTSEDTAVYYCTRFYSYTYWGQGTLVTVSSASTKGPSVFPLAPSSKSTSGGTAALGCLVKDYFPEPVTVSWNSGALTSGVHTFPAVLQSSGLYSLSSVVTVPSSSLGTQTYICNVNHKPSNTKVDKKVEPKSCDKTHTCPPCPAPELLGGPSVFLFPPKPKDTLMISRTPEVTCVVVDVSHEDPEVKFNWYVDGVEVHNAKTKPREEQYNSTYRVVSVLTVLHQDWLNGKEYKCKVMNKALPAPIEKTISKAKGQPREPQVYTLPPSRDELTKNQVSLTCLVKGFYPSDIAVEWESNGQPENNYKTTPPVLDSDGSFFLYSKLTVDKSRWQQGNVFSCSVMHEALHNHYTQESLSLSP
light: DIVMTQSPLSLPVTPGEPASISCQASESLVHSNRNTYLHWYLQKPGQSPQLLIYKVSNRFSGVPDRFSGSGSGTDFTLKISRVEAEDVGVYYCSQNTHVPPTFGQGTKVEIERTVAAPSVFIFPPSDEQLKSGTASVVCLLNNFYPREAKVQWKVDNALQSGNSQESVTEQDSKDSTYSLSSTLTLSKADYEKHKVYACEVTHQGLSSPVTKSFNRGEC
notes: homodimerized: alteration in both H chains; also called Ho Ab S324_06M
B2: GpH7-B3 variant S337_06M/GpL16-k0 (antibody, human IgG1, kappa)
heavy: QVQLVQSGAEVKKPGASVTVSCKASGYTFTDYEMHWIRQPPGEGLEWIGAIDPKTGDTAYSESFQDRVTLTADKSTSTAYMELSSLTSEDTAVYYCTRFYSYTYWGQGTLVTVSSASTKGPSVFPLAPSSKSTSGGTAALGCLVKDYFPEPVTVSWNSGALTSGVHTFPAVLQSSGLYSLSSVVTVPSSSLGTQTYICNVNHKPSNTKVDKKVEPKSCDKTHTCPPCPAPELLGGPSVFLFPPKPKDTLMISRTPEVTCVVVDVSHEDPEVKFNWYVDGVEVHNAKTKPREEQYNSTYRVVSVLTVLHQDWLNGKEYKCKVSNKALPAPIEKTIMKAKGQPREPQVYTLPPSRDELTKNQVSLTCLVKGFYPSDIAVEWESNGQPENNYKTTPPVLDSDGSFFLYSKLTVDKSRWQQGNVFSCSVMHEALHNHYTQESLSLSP
light: B1 light
notes: homodimerized: alteration in both H chains; also called Ho Ab S337_06M
B3: GpH7-B3 variant S337_16H/GpL16-k0 (antibody, human IgG1, kappa)
heavy: not shown
light: B1 light
notes: homodimerized: alteration in both H chains; also called Ho Ab S337_16H
B4: GpH7-B3 variant S337_03V/GpL16-k0 (antibody, human IgG1, kappa)
heavy: not shown
light: B1 light
notes: homodimerized: alteration in both H chains; also called Ho Ab S337_03V
B5: GpH7-B3 variant S337_10E/GpL16-k0 (antibody, human IgG1, kappa)
heavy: not shown
light: B1 light
notes: homodimerized: alteration in both H chains; also called Ho Ab S337_10E
B6: GpH7-B3 variant S337_20W/GpL16-k0 (antibody, human IgG1, kappa)
heavy: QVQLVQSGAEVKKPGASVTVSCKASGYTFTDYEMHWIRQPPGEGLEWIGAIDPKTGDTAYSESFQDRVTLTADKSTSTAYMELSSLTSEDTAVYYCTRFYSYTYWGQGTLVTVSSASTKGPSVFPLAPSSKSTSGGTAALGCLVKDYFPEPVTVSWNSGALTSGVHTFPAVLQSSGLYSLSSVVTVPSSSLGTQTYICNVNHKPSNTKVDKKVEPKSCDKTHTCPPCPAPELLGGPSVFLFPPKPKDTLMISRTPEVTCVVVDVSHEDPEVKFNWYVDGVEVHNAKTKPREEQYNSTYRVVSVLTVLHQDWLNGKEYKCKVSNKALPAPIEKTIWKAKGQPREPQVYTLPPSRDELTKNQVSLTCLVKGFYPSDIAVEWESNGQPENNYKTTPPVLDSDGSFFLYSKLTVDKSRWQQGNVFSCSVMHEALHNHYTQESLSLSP
light: B1 light
notes: homodimerized: alteration in both H chains; also called Ho Ab S337_20W
B7: GpH7-B3 variant S337_09D/GpL16-k0 (antibody, human IgG1, kappa)
heavy: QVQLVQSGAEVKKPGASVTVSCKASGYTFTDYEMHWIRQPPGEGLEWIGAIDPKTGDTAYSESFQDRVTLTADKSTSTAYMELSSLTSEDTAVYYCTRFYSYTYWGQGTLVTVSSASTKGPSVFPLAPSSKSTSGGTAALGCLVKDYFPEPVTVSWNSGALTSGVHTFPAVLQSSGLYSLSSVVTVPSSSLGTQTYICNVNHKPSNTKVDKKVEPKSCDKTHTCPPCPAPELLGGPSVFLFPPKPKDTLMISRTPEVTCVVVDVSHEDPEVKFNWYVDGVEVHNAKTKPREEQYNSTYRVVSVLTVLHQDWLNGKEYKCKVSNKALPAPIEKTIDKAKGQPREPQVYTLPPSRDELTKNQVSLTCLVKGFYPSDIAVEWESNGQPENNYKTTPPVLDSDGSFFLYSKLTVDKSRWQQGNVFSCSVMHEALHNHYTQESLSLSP
light: B1 light
notes: homodimerized: alteration in both H chains; also called Ho Ab S337_09D
B8: GpH7-B3 variant T335_07I/GpL16-k0 (antibody, human IgG1, kappa)
heavy: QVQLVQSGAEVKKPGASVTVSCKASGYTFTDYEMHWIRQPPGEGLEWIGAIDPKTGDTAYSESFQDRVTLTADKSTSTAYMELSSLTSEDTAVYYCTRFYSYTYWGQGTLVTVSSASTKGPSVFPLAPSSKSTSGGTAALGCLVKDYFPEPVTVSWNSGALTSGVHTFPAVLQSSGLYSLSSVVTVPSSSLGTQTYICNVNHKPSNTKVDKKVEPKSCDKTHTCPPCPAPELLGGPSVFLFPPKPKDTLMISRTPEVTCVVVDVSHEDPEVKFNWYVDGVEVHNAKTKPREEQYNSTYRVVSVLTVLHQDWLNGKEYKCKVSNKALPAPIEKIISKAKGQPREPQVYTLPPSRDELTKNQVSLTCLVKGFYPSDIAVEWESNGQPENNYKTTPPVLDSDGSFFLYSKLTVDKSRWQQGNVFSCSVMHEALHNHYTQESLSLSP
light: B1 light
notes: homodimerized: alteration in both H chains; also called Ho Ab T335_07I
B9: GpH7-B3 variant T335_13S/GpL16-k0 (antibody, human IgG1, kappa)
heavy: not shown
light: B1 light
notes: homodimerized: alteration in both H chains; also called Ho Ab T335_13S
B10: GpH7-B3 variant S337_07I/GpL16-k0 (antibody, human IgG1, kappa)
heavy: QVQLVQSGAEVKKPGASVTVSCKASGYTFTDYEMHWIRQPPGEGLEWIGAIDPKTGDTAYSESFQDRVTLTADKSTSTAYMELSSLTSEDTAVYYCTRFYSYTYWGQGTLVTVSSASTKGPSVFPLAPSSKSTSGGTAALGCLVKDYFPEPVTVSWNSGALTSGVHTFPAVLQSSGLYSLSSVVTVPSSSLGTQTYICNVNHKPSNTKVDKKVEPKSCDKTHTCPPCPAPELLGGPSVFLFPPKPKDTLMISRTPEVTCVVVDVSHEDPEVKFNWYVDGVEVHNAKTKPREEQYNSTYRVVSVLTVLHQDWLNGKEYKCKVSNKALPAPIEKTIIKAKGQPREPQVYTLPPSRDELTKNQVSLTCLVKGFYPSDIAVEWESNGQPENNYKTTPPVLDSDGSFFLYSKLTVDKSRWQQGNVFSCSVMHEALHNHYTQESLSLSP
light: B1 light
notes: homodimerized: alteration in both H chains; also called Ho Ab S337_07I
B11: GpH7-B3 variant S337_15Y/GpL16-k0 (antibody, human IgG1, kappa)
heavy: not shown
light: B1 light
notes: homodimerized: alteration in both H chains; also called Ho Ab S337_15Y
B12: GpH7-B3 variant T335_02A/GpL16-k0 (antibody, human IgG1, kappa)
heavy: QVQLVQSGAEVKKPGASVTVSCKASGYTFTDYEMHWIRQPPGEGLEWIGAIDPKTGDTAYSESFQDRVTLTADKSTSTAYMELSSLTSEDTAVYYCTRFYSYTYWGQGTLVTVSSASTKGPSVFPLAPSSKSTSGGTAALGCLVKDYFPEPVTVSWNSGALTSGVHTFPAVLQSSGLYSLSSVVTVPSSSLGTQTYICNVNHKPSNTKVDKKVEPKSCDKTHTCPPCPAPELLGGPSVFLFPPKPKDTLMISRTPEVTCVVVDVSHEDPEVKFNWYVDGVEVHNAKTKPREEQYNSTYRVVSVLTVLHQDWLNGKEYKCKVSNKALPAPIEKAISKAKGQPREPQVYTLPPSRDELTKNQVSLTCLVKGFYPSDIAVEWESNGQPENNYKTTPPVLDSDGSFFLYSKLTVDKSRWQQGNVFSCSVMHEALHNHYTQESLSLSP
light: B1 light
notes: homodimerized: alteration in both H chains; also called Ho Ab T335_02A
B13: GpH7-B3 variant S337_18N/GpL16-k0 (antibody, human IgG1, kappa)
heavy: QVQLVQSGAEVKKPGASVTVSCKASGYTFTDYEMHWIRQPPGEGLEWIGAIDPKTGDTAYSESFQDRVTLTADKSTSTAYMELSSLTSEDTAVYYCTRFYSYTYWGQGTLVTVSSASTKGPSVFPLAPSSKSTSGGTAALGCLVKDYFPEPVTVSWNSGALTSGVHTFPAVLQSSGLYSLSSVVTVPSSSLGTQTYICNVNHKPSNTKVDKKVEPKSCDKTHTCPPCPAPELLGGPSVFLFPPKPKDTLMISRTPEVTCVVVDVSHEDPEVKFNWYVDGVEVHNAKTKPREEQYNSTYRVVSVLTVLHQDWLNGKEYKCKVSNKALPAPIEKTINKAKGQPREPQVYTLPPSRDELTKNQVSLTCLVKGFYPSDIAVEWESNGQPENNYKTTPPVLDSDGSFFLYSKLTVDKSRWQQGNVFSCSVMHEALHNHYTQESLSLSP
light: B1 light
notes: homodimerized: alteration in both H chains; also called Ho Ab S337_18N
B14: GpH7-B3 variant S337_19Q/GpL16-k0 (antibody, human IgG1, kappa)
heavy: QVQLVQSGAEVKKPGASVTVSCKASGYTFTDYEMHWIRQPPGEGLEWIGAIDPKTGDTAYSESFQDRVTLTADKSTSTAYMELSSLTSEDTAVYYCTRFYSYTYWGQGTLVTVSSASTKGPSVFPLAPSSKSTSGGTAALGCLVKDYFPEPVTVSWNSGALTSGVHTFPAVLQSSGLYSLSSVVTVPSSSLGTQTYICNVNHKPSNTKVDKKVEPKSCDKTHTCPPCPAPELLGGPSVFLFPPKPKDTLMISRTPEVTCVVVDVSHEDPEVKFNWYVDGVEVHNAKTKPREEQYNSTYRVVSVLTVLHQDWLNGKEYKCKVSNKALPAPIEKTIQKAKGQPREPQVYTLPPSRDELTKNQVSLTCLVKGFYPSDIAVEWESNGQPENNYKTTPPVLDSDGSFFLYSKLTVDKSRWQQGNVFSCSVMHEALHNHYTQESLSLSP
light: B1 light
notes: homodimerized: alteration in both H chains; also called Ho Ab S337_19Q
B15: GpH7-B3 variant T335_05P/GpL16-k0 (antibody, human IgG1, kappa)
heavy: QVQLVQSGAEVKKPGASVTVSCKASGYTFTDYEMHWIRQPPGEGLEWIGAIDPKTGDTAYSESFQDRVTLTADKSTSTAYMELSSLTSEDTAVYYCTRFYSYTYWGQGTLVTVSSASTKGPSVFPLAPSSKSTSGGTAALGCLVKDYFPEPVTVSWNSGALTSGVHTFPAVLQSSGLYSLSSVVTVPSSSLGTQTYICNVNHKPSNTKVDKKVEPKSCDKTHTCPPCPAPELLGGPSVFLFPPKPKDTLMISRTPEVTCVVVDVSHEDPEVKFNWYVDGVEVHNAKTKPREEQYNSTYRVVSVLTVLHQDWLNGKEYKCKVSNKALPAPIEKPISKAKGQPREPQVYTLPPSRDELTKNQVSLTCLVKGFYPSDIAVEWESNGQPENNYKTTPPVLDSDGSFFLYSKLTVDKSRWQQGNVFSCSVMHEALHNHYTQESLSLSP
light: B1 light
notes: homodimerized: alteration in both H chains; also called Ho Ab T335_05P
B16: GpH7-B3 variant T335_10E/GpL16-k0 (antibody, human IgG1, kappa)
heavy: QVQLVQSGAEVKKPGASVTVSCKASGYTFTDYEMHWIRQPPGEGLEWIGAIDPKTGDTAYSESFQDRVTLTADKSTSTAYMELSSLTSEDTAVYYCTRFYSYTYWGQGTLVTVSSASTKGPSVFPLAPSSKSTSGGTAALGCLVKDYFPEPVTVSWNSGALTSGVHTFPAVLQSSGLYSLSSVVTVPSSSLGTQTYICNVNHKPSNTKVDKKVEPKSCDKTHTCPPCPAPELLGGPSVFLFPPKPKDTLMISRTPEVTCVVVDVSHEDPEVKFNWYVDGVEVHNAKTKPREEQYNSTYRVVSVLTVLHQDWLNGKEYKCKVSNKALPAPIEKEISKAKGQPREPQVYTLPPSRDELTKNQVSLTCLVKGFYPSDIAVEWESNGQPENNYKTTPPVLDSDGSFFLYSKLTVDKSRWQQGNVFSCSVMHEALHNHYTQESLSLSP
light: B1 light
notes: homodimerized: alteration in both H chains; also called Ho Ab T335_10E
B17: GpH7-A5/GpH7-B3 variant S337_02A/GpL16-k0 (antibody, human IgG1, kappa)
heavy 1: not shown
heavy 2: not shown
light: B1 light
notes: heterodimerized: alteration in one H chain only; also called He Ab S337_02A
B18: GpH7-A5/GpH7-B3 variant K334_19Q/GpL16-k0 (antibody, human IgG1, kappa)
heavy 1: not shown
heavy 2: not shown
light: B1 light
notes: heterodimerized: alteration in one H chain only; also called He Ab K334_19Q
B19: GpH7-A5/GpH7-B3 variant P331_02A/GpL16-k0 (antibody, human IgG1, kappa)
heavy 1: not shown
heavy 2: not shown
light: B1 light
notes: heterodimerized: alteration in one H chain only; also called He Ab P331_02A
B20: GpH7-A5/GpH7-B3 variant A330_01G/GpL16-k0 (antibody, human IgG1, kappa)
heavy 1: not shown
heavy 2: not shown
light: B1 light
notes: heterodimerized: alteration in one H chain only; also called He Ab A330_01G
B21: GpH7-A5/GpH7-B3 variant K334_13S/GpL16-k0 (antibody, human IgG1, kappa)
heavy 1: not shown
heavy 2: not shown
light: B1 light
notes: heterodimerized: alteration in one H chain only; also called He Ab K334_13S
B22: GpH7-A5/GpH7-B3 variant P331_04F/GpL16-k0 (antibody, human IgG1, kappa)
heavy 1: not shown
heavy 2: not shown
light: B1 light
notes: heterodimerized: alteration in one H chain only; also called He Ab P331_04F
B23: GpH7-A5/GpH7-B3 variant K334_05P/GpL16-k0 (antibody, human IgG1, kappa)
heavy 1: not shown
heavy 2: not shown
light: B1 light
notes: heterodimerized: alteration in one H chain only; also called He Ab K334_05P
B24: GpH7-A5/GpH7-B3 variant K334_02A/GpL16-k0 (antibody, human IgG1, kappa)
heavy 1: not shown
heavy 2: not shown
light: B1 light
notes: heterodimerized: alteration in one H chain only; also called He Ab K334_02A
B25: GpH7-A5/GpH7-B3 variant K326_20W/GpL16-k0 (antibody, human IgG1, kappa)
heavy 1: not shown
heavy 2: not shown
light: B1 light
notes: heterodimerized: alteration in one H chain only; also called He Ab K326_20W
B26: GpH7-A5/GpH7-B3 variant L235_20W/GpL16-k0 (antibody, human IgG1, kappa)
heavy 1: not shown
heavy 2: not shown
light: B1 light
notes: heterodimerized: alteration in one H chain only; also called He Ab L235_20W
B27: GpH7-A5/GpH7-B3 variant P331_20W/GpL16-k0 (antibody, human IgG1, kappa)
heavy 1: not shown
heavy 2: not shown
light: B1 light
notes: heterodimerized: alteration in one H chain only; also called He Ab P331_20W

molecular target: T1, FcγRIIa R extracellular domain with …; test: SPR (Biacore), relative FcγRIIa R binding, GpH7-B3/GpL16-k0 = 100
Procedure: Analysis of interaction between objective antibody and the FcγR was carried out using Biacore T100 (GE Healthcare). HBS-EP+ (GE Healthcare) was used as the running buffer, and the measurement temperature was set to 25° C. Chips produced by immobilizing the antigen peptide by the amine coupling method to a Series S Sencor Chip CM5 (GE Healthcare), or alternatively, chips produced by allowing preliminarily biotinylated antigen peptides to interact with and immobilize onto a Series S Sensor Chip SA (certified) (GE Healthcare) were used. Antibodies of interest were captured onto an antigen peptide-immobilized chip, and allowed to interact to each FcγR diluted with running buffer. To regenerate and repeatedly use the chip, the antibodies captured on the chip were washed off by reacting 10 mM glycine-HCl, pH 1.5.

Row | Ho/Con_2aR | Binder
1 | 118 % of control | B1
2 | 101 % of control | B2
3 | 107 % of control | B3
4 | 102 % of control | B4
5 | 110 % of control | B5
6 | 105 % of control | B6
7 | 114 % of control | B7
8 | 107 % of control | B8
9 | 102 % of control | B9
10 | 103 % of control | B10
11 | 100 % of control | B11
12 | 102 % of control | B12
13 | 103 % of control | B13
14 | 102 % of control | B14
15 | 104 % of control | B15
16 | 109 % of control | B16

molecular target: T1, FcγRIIa R extracellular domain with …; test: SPR (Biacore), relative FcγRIIa R binding, GpH7-A5/GpH7-B3/GpL16-k0 = 100

Row | He/Con_2aR | Binder
17 | 105 % of control | B17
18 | 109 % of control | B18
19 | 106 % of control | B19
20 | 109 % of control | B20
21 | 109 % of control | B21
22 | 111 % of control | B22
23 | 103 % of control | B23
24 | 105 % of control | B24
25 | 131 % of control | B25
26 | 131 % of control | B26
27 | 110 % of control | B27
